Data on one substance can be found in publication PMC10147646.

For assay [1], the target named is JellyOp(K72T) (Carybdea rastonii).
In assay [2] the target is JellyOp (opsin-based pigment from the box jellyfish Carybdea rastonii) (Carybdea rastonii).
For assay [3] the target is unchanged. This is another data set of the same source.

Sequence of JellyOp (opsin-based pigment from the box jellyfish Carybdea rastonii) (Carybdea rastonii) (B6F0Y5 entry or part of it): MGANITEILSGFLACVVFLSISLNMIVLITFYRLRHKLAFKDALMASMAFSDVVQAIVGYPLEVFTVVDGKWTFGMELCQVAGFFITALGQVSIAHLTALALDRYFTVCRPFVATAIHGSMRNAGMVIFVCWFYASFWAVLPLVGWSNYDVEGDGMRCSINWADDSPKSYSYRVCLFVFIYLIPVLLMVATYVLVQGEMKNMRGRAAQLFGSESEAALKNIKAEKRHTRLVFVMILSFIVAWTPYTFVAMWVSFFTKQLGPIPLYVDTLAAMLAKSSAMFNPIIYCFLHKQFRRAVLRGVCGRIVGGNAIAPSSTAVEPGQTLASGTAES

In assay [1], “Gαs (from UniProt P63092 1-394) (natural protein)” returned a fast time constant of GIRK current inactivation by violet light (double-exponential decay) of 281 ms and a slow time constant of GIRK current inactivation by violet light (double-exponential decay) of 8.4 s. This substance also yielded a time constant of onset (TauON) of the light-triggered GIRK current in cells expressing JellyOp in assay [2] of 34 ms. Further, the time constant of inactivation (TauOFF) of the JellyOp GIRK response by high-intensity violet light (405 nm) in assay [3] came out at 252 ms.
